# Source: patent US20250197485A1, “Anti-ED-A Antibodies for the Treatment of Pulmonary Hypertension” (Universitätsklinikum Jena, priority 2022, published 2025)
# Tests used:
# [1] = system: MCT-induced PH; experiment: Right heart catheterization (RVPsys) in mouse model of MCT-induced PH; type: in vivo, C57BL/6 mice
# Excerpt: PH was induced in C57BL/6 mice (bodyweight: 25-30 g). The animals were obtained from ZET facility (Zentale Experimentelle Tierhaltung) of the University Hospital Jena (UKJ, Jena, Germany). Prior to PH induction, mice were allowed to acclimatize for at least 7 days with ad libitum access to food and water as well as controlled light/dark cycles. 41 animals were investigated divided into the following five experimental groups: • 1) sham induced controls (n=7) • 2) MCT induced PH (n=12) • 3) MCT induced PH+MAC (n=6) • 4) MCT induced PH+F8 IgG (n=8) • 5) MCT induced PH+KSF IgG (n=8)
# For PH induction, the Monocrotaline (MCT, Carl Roth, Germany) method was used.
# The sham induced controls were injected with 30 μl NaCl not containing MCT at day 1 (single dose; intraperitoneally, i.p.). […] The other 4 experimental groups were injected with MCT to induce PH (single dose; intraperitoneally, i.p.; 60 mg/kg body weight; volume 30 μl). Animals in the MCT induced PH+MAC group received the drug (Macitentan, Actelion Pharmaceuticals Ltd.) from day 14 to day 28 (once daily; per os; 15 mg/kg body weight). Animals in the MCT induced PH+F8 IgG group received F8 IgG 3 times on day 14, 16 and 18 (intravenously, i.v.; 195 μg/injection; volume 200 μl). Similarly, animals in the MCT induced PH+KSF IgG group received KSF IgG 3 times on day 14, 16 and 18 (intravenously, i.v.; 195 μg/injection; volume 120 μl).
# On day 28 after MCT injection, mice of all experimental groups were deeply anesthetized with a single dose of 100 mg/kg body weight ketamine and 10 mg/kg body weight Xylazin in approximately 60 μl each administered i.p.
# Right heart catheterization using a 1.4 F micro conductance pressure-volume catheter (Model SPR-839; Millar Instruments Inc; PowerLab system, ADInstruments Ltd., Oxford, UK) was performed via the right vena jugularis interna to measure the systolic right ventricular pressure and thereby verify the success of the experimental setting. Mice were then sacrificed in deep anesthesia and analgesia to carry out cardiac blood collection after thoracotomy and to harvest the organs.
# Statistical analyses were performed using IBM SPSS statistical software, version 28.0 (IBM SPSS Statistics for Windows. Armonk, NY, USA). Data are expressed as mean±standard deviation. Kruskal-Wallis and Mann-Whitney-U test were used to test for significant differences between the different groups. A p-value<0.05 as statistically significant.
# [2] = system: MCT-induced PH; experiment: Histological evaluation of lung tissue damage (sum-score) in mouse model of MCT-induced PH; type: in vivo, C57BL/6 mice
# Excerpt: PH was induced in C57BL/6 mice (bodyweight: 25-30 g). The animals were obtained from ZET facility (Zentale Experimentelle Tierhaltung) of the University Hospital Jena (UKJ, Jena, Germany). Prior to PH induction, mice were allowed to acclimatize for at least 7 days with ad libitum access to food and water as well as controlled light/dark cycles. 41 animals were investigated divided into the following five experimental groups: • 1) sham induced controls (n=7) • 2) MCT induced PH (n=12) • 3) MCT induced PH+MAC (n=6) • 4) MCT induced PH+F8 IgG (n=8) • 5) MCT induced PH+KSF IgG (n=8) For PH induction, the Monocrotaline (MCT, Carl Roth, Germany) method was used. The sham induced controls were injected with 30 μl NaCl not containing MCT at day 1 (single dose; intraperitoneally, i.p.). […] The other 4 experimental groups were injected with MCT to induce PH (single dose; intraperitoneally, i.p.; 60 mg/kg body weight; volume 30 μl). Animals in the MCT induced PH+MAC group received the drug (Macitentan, Actelion Pharmaceuticals Ltd.) from day 14 to day 28 (once daily; per os; 15 mg/kg body weight). Animals in the MCT induced PH+F8 IgG group received F8 IgG 3 times on day 14, 16 and 18 (intravenously, i.v.; 195 μg/injection; volume 200 μl). Similarly, animals in the MCT induced PH+KSF IgG group received KSF IgG 3 times on day 14, 16 and 18 (intravenously, i.v.; 195 μg/injection; volume 120 μl). Microscopic evaluation to assess histopathological lung tissue damage was performed using H&E as well as Sirius Red stained lung tissue sections according to a defined sum-score (between 0 and 12; maximum score value=highest level of tissue damage) integrating certain histological alterations frequently occurring in PH: percentage of atelectasis area, percentage of emphysema area, degree of media hypertrophy of peribronchial arteries, presence of perivascular cellular edema of peribronchial arteries, and degree of media hypertrophy of small arteries. Statistical analyses were performed using IBM SPSS statistical software, version 28.0 (IBM SPSS Statistics for Windows. Armonk, NY, USA). Data are expressed as mean±standard deviation. Kruskal-Wallis and Mann-Whitney-U test were used to test for significant differences between the different groups. A p-value<0.05 as statistically significant.
# [3] = in contrast to treatment with KSF IgG
molecule,measurement,setting,value
"F8 IgG: Chimaeric anti-ED-A antibody: human F8 VH/VL fused to murine IgG2a constant regions; heavy chain SEQ ID NO: 11, light chain SEQ ID NO: 12 (antibody) heavy: EVQLLESGGGLVQPGGSLRLSCAASGFTFSLFTMSWVRQAPGKGLEWVSAISGSGGSTYYADSVKGRFTISRDNSKNTLYLQMNSLRAEDTAVYYCAKSTHLYLFDYWGQGTLVTVSSAKTTAPSVYPLAPVCGDTTGSSVTLGCLVKGYFPEPVTLTWNSGSLSSGVHTFPAVLQSDLYTLSSSVTVTSSTWPSQSITCNVAHPASSTKVDKKIEPRGPTIKPCPPCKCPAPNLLGGPSVFIFPPKIKDVLMISLSPIVTCVVVDVSEDDPDVQISWFVNNVEVHTAQTQTHREDYNSTLRVVSALPIQHQDWMSGKEFKCKVNNKDLPAPIERTISKPKGSVRAPQVYVLPPPEEEMTKKQVTLTCMVTDFMPEDIYVEWTNNGKTELNYKNTEPVLDSDGSYFMYSKLRVEKKNWVERNSYSCSVVHEGLHNHHTTKSFSRTPGK light: EIVLTQSPGTLSLSPGERATLSCRASQSVSMPFLAWYQQKPGQAPRLLIYGASSRATGIPDRFSGSGSGTDFTLTISRLEPEDFAVYYCQQMRGRPPTFGQGTKVEIKRTDAAPTVSIFPPSSEQLTSGGASVVCFLNNFYPKDINVKWKIDGSERQNGVLNSWTDQDSKDSTYSMSSTLTLTKDEYERHNSYTCEATHKTSTSPIVKSFNRNEC",attenuation in RVPsys compared to the MCT-induced PH group without treatment (positive control),"[1]; day 28, F8 IgG 195 μg i.v. day 14, 16, 18 (p=0.010), MAC 15 mg/kg per os once daily day 14-28 (n.s.)",significant attenuation
same,RVPsys compared to the group treated with the negative control antibody KSF IgG,"[1]; day 28, p=0.003",significantly reduced
same,pressure values in the right ventricle (RVPsys),[1]; [3],significant reduction
same,histopathological lung tissue damage (sum-score 0 to 12) compared to the MCT-induced PH group without treatment,"[2]; MAC p=0.020, F8 IgG p=0.005, KSF IgG p=0.907",significantly reduced
same,histopathological lung tissue damage (sum-score 0 to 12) compared to negative controls,"[2]; all groups p<0.05, F8 IgG p=0.002",significantly increased
same,lung tissue damage at the histopathological level,[2]; [3],attenuation
